According to patent US20240010751A1 (EXELIXIS, published 2024):
Residue numbers refer to the chain shown, from its start.

B1: C40 x P31.2 bispecific antibody in a BC44 format (bispecific antibody)
chain 1: not shown
chain 2: EVQLVESGGGLVQPGGSLRLSCAASGFTFSYYYIHWVRQAPGKGLEWVAWIDPYGHSTTYADSVKGRFTISADTSKNTAYLQMNSLRAEDTAVYYCARGGRGAMDYWGQGTLVTVSSASPREPQVYTLPPCRDELTKNQVSLTCLVKGFYPSDIAVEWESNGQPENNYKTTPPVLDSDGSFFLYSKLTVDKSRWQQGNVFSCSVMHEALHNHYTQKSLSLSPGK
chain 3: DIQMTQSPSSLSASVGDRVTITCRASQSVSSAVAWYQQKPGKAPKLLIYSASSLYSGVPSRFSGSRSGTDFTLTISSLQPEDFATYYCQQFGAEPITFGQGTKVEIKRTVAAPSVFIFPPSDEQLKSGTASVVCLLNNFYPREAKVQWKVDNALQSGNSQESVTEQDSKDSTYSLSSTLTLSKADYEKHKVYACEVTHQGLSSPVTKSFNRGECDKTHTCPPCPAPELLGGPSVFLFPPKPKDTLMISRTPEVTCVVVDVSHEDPEVKFNWYVDGVEVHNAKTKPREEQYNSTYRVVSVLTVLHQDWLNGKEYKCKVSNKALPAPIEKTISKAKGQPREPQVCTLPPSREEMTKNQVSLSCAVKGFYPSDIAVEWESNGQPENNYKTTPPVLDSDGSFFLVSKLTVDKSRWQQGNVFSCSVMHEALHNHYTQKSLSLSPGK
chain 4: EVQLVESGGGLVQPGGSLRLSCAASGFTFSSYYIHWVRQAPGKGLEWVATISSGGGFTYYADSVKGRFTISADTSKNTAYLQMNSLRAEDTAVYYCARGYTLTPVLDYWGQGTLVTVSSASTKGPSVFPLAPSSKSTSGGTAALGCLVKDYFPEPVTVSWNSGALTSGVHTFPAVLQSSGLYSLSSVVTVPSSSLGTQTYICNVNHKPSNTKVDKKVEPPKSC
notes: B-Body of four polypeptide chains, BC44 format; CD47 arm from C40, PD-L1 arm from P31.2; also called C40 × P31.2
B2: C40 x P24 bispecific antibody in a BC44 format (bispecific antibody)
chain 1: not shown
chain 2: B1 chain 2
chain 3: B1 chain 3 with F91V, G92S, A93Y, E94S, I96Y
chain 4: EVQLVESGGGLVQPGGSLRLSCAASGFTFDQYYIHWVRQAPGKGLEWVAEIYPAGSYTYYADSVKGRFTISADTSKNTAYLQMNSLRAEDTAVYYCARGPYSVRYALDYWGQGTLVTVSSASTKGPSVFPLAPSSKSTSGGTAALGCLVKDYFPEPVTVSWNSGALTSGVHTFPAVLQSSGLYSLSSVVTVPSSSLGTQTYICNVNHKPSNTKVDKKVEPPKSC
notes: B-Body of four polypeptide chains, BC44 format; CD47 arm from C40, PD-L1 arm from P24; also called C40 × P24
B3: C59 x P31.2 bispecific antibody in a BC44 format (bispecific antibody)
chain 1: not shown
chain 2: B1 chain 2 with S30T, Y31S, W50Y, P53S, Y54K, G55H, H56G, S57T, T59Q, G102S
chain 3: B1 chain 3
chain 4: B1 chain 4
notes: B-Body of four polypeptide chains, BC44 format; CD47 arm from C59, PD-L1 arm from P31.2; also called C59 × P31.2
B4: C56 x P22 bispecific antibody in a BC44 format (bispecific antibody)
chain 1: not shown
chain 2: B1 chain 2 with S30T, W50F, G55S, H56G, T59E, R101L, G102Y, M104L
chain 3: B1 chain 3 with F91Y, G92Y, A93T, E94S, I96Y
chain 4: EVQLVESGGGLVQPGGSLRLSCAASGFTFSSYYIHWVRQAPGKGLEWVAWITSHGYSTKYADSVKGRFTISADTSKNTAYLQMNSLRAEDTAVYYCARDSVIYGLDYWGQGTLVTVSSASTKGPSVFPLAPSSKSTSGGTAALGCLVKDYFPEPVTVSWNSGALTSGVHTFPAVLQSSGLYSLSSVVTVPSSSLGTQTYICNVNHKPSNTKVDKKVEPPKSC
notes: B-Body of four polypeptide chains, BC44 format; CD47 arm from C56, PD-L1 arm from P22; also called C56 × P22
B5: C59 x P22 bispecific antibody in a BC44 format (bispecific antibody)
chain 1: not shown
chain 2: B1 chain 2 with S30T, Y31S, W50Y, P53S, Y54K, G55H, H56G, S57T, T59Q, G102S
chain 3: B1 chain 3 with F91Y, G92Y, A93T, E94S, I96Y
chain 4: B4 chain 4
notes: B-Body of four polypeptide chains, BC44 format; CD47 arm from C59, PD-L1 arm from P22; also called C59 × P22
B6: C40 x P24 (silent Fc) bispecific antibody in a BC44 format (bispecific antibody)
chain 1: not shown
chain 2: B1 chain 2
chain 3: B1 chain 3 with F91V, G92S, A93Y, E94S, I96Y, L228A, L229A, P323K
chain 4: B2 chain 4
B7: C40 x P24 bispecific antibody in a BC1 format (bispecific antibody)
chain 1: not shown
chain 2: B1 chain 2 with L128D, C131S, P222G, G223E, K224C
chain 3: B1 chain 3 with F91V, G92S, A93Y, E94S, I96Y
chain 4: B2 chain 4
notes: B-Body of four polypeptide chains, BC1 format; CD47 arm from C40, PD-L1 arm from P24; also called C40 × P24
B8: C56 x P22 bispecific antibody in a BC1 format (bispecific antibody)
chain 1: not shown
chain 2: EVQLVESGGGLVQPGGSLRLSCAASGFTFTYYYIHWVRQAPGKGLEWVAFIDPYSGSTEYADSVKGRFTISADTSKNTAYLQMNSLRAEDTAVYYCARGGLYALDYWGQGTLVTVSSASPREPQVYTDPPSRDELTKNQVSLTCLVKGFYPSDIAVEWESNGQPENNYKTTPPVLDSDGSFFLYSKLTVDKSRWQQGNVFSCSVMHEALHNHYTQKSLSLSGEC
chain 3: B1 chain 3 with F91Y, G92Y, A93T, E94S, I96Y
chain 4: B4 chain 4
notes: B-Body of four polypeptide chains, BC1 format; CD47 arm from C56, PD-L1 arm from P22; also called C56 × P22
B9: C59 x P22 bispecific antibody in a BC1 format (bispecific antibody)
chain 1: not shown
chain 2: B8 chain 2 with Y31S, F50Y, P53S, Y54K, S55H, S57T, E59Q, L101R, Y102S, L104M
chain 3: B1 chain 3 with F91Y, G92Y, A93T, E94S, I96Y
chain 4: B4 chain 4
notes: B-Body of four polypeptide chains, BC1 format; CD47 arm from C59, PD-L1 arm from P22; also called C59 × P22
B10: C40 x P31.2 bispecific antibody in a BC1 format (bispecific antibody)
chain 1: not shown
chain 2: B1 chain 2 with L128D, C131S, P222G, G223E, K224C
chain 3: B1 chain 3
chain 4: B1 chain 4
notes: B-Body of four polypeptide chains, BC1 format; CD47 arm from C40, PD-L1 arm from P31.2; also called C40 × P31.2
B11: antibody designated P24 (antibody, V domains shown)
VH: EVQLVESGGGLVQPGGSLRLSCAASGFTFDQYYIHWVRQAPGKGLEWVAEIYPAGSYTYYADSVKGRFTISADTSKNTAYLQMNSLRAEDTAVYYCARGPYSVRYALDYWGQGTLVT
VL: DIQMTQSPSSLSASVGDRVTITCRASQSVSSAVAWYQQKPGKAPKLLIYSASSLYSGVPSRFSGSRSGTDFTLTISSLQPEDFATYYCQQVSYSPYTFGQGTKVEIK
notes: Anti-PD-L1

target: T1, CD47 on cells (target cells of the assays) (Homo sapiens (Human), UniProt Q08722 19-323); assay: cell-based or functional assay

Binder | IC50, CD47/SIRPα Inhibition Assay in PD-L1 MDA-MB-231 Cells
B1 | 0.108 nM
B2 | 0.112 nM
B3 | 0.266 nM
B4 | 0.218 nM
B5 | 0.35 nM

target: T1, CD47 on cells (target cells of the …); assay: cell-based or functional assay; remark: another data set of the same source

Binder | IC50, CD47/SIRPα Inhibition Assay, JeKo-PD-L1 Cells
B6 | 0.26 nM
B2 | 1.26 nM
B4 | 1.2 nM

target: PD-L1 on cells (target cells of the assays) (Homo sapiens (Human), UniProt Q9NZQ7 19-290); assay: cell-based or functional assay
Sequence (Q9NZQ7 19-290 limits assumed): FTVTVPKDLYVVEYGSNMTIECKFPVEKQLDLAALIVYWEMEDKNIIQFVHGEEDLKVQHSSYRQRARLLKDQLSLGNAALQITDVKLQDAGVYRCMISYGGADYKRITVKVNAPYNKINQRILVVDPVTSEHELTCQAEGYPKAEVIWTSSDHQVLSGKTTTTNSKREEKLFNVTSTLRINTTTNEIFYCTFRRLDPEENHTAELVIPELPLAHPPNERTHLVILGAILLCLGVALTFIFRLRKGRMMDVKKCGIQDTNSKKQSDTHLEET

Binder | IC50, PD-1/PD-L1 Inhibition Assay in Jeko-PD-L1 Cells | IC50, PD-1/PD-L1 Inhibition Assay in MDA-MB-231 PD-L1 Cells
B1 | 0.0115 nM | 1.5 nM
B6 | 0.274 nM | 14.7 nM
B2 | 0.275 nM | 1.3 nM
B3 | 0.0268 nM | 3.7 nM
B4 | 1.99 nM | 3 nM
B5 | 0.0481 nM | 2.5 nM

target: T2, CD47 and PD-L1 together on the surface of the same cells (CD47 PD-L1 TCA CHO cells); PD-L1 MDA-MB-231 cells; … (Homo sapiens (Human), UniProt Q08722 19-323; Q9NZQ7 19-290); assay: flow cytometry on Jeko-PD-L1 cells (both targets on the cells); BC44 format

Binder | EC50
B1 | 0.227 nM
B2 | 0.703 nM
B3 | 0.256 nM
B4 | 0.218 nM

target: T2, CD47 and PD-L1 together on the surface …; assay: flow cytometry on PD-L1 MDA-MB-231 cells (both targets on the cells); BC44 format

Binder | EC50
B1 | 0.69 nM
B2 | 3.1 nM
B3 | 2.5 nM
B4 | 1.2 nM
B5 | 1.5 nM

target: T2, CD47 and PD-L1 together on the surface …; assay: flow cytometry on CD47 PD-L1 TCA CHO cells (both targets on the cells); BC1 format

Binder | EC50
B7 | 1.3 nM
B8 | 1.1 nM
B9 | 2.3 nM
B10 | 0.13 nM

target: T3, biotinylated human PD-L1 (extracellular domain, Acro Biosystems) (human, UniProt Q9NZQ7 19-238, biotinylated); assay: Octet in-tandem cross-competition, 100 nM biotinylated antigen on a streptavidin sensor
T3 construct: Bought protein; also called biotinylated antigen; biotinylated human PD-L1-His Avitag; not shown: His Avitag or His tag
T3 sequence (Q9NZQ7 19-238): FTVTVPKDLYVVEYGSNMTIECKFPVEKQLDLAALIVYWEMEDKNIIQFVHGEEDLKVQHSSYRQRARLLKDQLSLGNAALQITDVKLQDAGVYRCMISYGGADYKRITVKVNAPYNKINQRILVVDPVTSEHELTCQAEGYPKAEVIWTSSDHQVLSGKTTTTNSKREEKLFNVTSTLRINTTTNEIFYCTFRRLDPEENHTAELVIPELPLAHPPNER

Binder | binding result
B11 | binds
